Test results published in the supplement of paper PMC7125110.
± gives the standard error. This sample holds only a part of the variants without activity.

B1: glmS ribozyme (parent)
chain: AUAAAAGCGCCAGAACUACAGAAAUGUAGUUGACGAGGAGGAGGUUUAUCGAAUUUUCGGCGGAUGCCUCCAAA

Assays:
Conditions in all cases: with glucosamine-6-phosphate
glucosamine-6-phosphate [1] = variants of: B1; test: self-cleavage kobs at 40 uM GlcN6P; higher = faster cleavage; RNA array
Method in brief: (§1)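 Barcoded ribozyme variants on sequenced MiSeq chips were transcribed in situ by E. coli RNA polymerase and followed at 37 °C through a hybridised Cy3 probe. Glucosamine-6-phosphate at 40 μM to 10 mM in HEPES/KCl/Mg(OAc)2 buffer was flowed in, and tiles were imaged over ~14 h. Signals were normalised to baseline and to non-cleaving reference variants, and per-tile medians were fit to one- or two-exponential decays to give kobs. Weighted Michaelis–Menten fits across concentrations gave kcat and KM.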

glucosamine-6-phosphate [2] = variants of: B1; test: self-cleavage kobs at 160 uM GlcN6P; higher = faster cleavage; RNA array
Method in brief: as §1

glucosamine-6-phosphate [3] = variants of: B1; test: self-cleavage kobs at 640 uM GlcN6P; higher = faster cleavage; RNA array
Method in brief: as §1

glucosamine-6-phosphate [4] = variants of: B1; test: self-cleavage kobs at 2500 uM GlcN6P; higher = faster cleavage; RNA array
Method in brief: as §1

glucosamine-6-phosphate [5] = variants of: B1; test: self-cleavage kobs at 10000 uM GlcN6P; higher = faster cleavage; RNA array
Method in brief: as §1

| Variant | self-cleavage kobs at 40 uM GlcN6P (glucosamine-6-phosphate [1]) | self-cleavage kobs at 160 uM GlcN6P (glucosamine-6-phosphate [2]) | self-cleavage kobs at 640 uM GlcN6P (glucosamine-6-phosphate [3]) | self-cleavage kobs at 2500 uM GlcN6P (glucosamine-6-phosphate [4]) | self-cleavage kobs at 10000 uM GlcN6P (glucosamine-6-phosphate [5]) |
| --- | --- | --- | --- | --- | --- |
| AUAAAAGCGCCAGAACUACAGAAAUGUAGUUAACGAGGAGGAGGUUUAUCGAAUUUUCGGCGGAUGCCUUCAAA [G32A C70U] | 6.22e-05 ± 6.9e-06 s⁻¹ | 0.000126 ± 2.7e-05 s⁻¹ | 0.000627 ± 9.7e-05 s⁻¹ | 0.000902 ± 0.00023 s⁻¹ | 0.00374 ± 0.00046 s⁻¹ |
| AUAAAAGCGCCAGAACUACAGAAAUGUAGUGGACGAGGAGGAGGUUUAUCGAAUAUUCGGCGGAUGCCUCCAAA [U31G U55A] | 0.000446 ± 7.1e-05 s⁻¹ | 0.00128 ± 0.00045 s⁻¹ | 0.00221 ± 0.00041 s⁻¹ | 0.00465 ± 0.0011 s⁻¹ | 0.0118 ± 0.0023 s⁻¹ |
| AUAAAAGCGCCAGAACUACAGAAAUGUAGUGGACGAGGAGGAGGUUUAUCGAAUGUUCGGCGGAUGCCUCCAAA [U31G U55G] | 0.000486 ± 0.0001 s⁻¹ | 0.000859 ± 0.00014 s⁻¹ | 0.00296 ± 0.00071 s⁻¹ | 0.0116 ± 0.0027 s⁻¹ | 0.0152 ± 0.0067 s⁻¹ |
| AUAAAAGCGCCAGAACUACAGAAAUGUAGUUAACGACGAGGUGGUUUAUCGAAUUUUCGGCGGAUGCCUCCAAA [G32A G37C A42U] | < 1e-05 s⁻¹ | – | – | – | – |
| AUAAAAGCGCCAGAACUACAGAAAUGUAGUUCUCGAGGAGGAGGUUUAUCGAAUUUUCGGCGGAUGCCUCCAAA [G32C A33U] | < 1e-05 s⁻¹ | < 1e-05 s⁻¹ | < 1e-05 s⁻¹ | < 1e-05 s⁻¹ | – |
| AUAAAAGCGCCAGAACUACAGAAAUGUAGUUCACGAGGAGGAGGUUUAUCGAAUUUUCGGCGGCUGCCUCCAAA [G32C A64C] | < 1e-05 s⁻¹ | < 1e-05 s⁻¹ | – | < 1e-05 s⁻¹ | < 1e-05 s⁻¹ |
| AUAAAAGCGCCAGAACUACAGAAAUGUAGUUACCGAGGAGGAGGUUUAUCGAAUUUUCGGCGGAUGCGUCGAAA [G32A A33C C68G C71G] | 5.72e-05 ± 1.6e-05 s⁻¹ | – | – | – | 8.64e-05 ± 2e-05 s⁻¹ |
| AUAAAAGCGCCAGAACUACAGAAAUGUAGUUAACGAGGAGGAGGUUUAUCGAAUUUUCGGGGGAUGCCCCCAAA [G32A C61G U69C] | 3.85e-05 ± 1.8e-05 s⁻¹ | – | – | 7.4e-05 ± 2.3e-05 s⁻¹ | 3.49e-05 ± 1.7e-05 s⁻¹ |
| AUAAAAGCGCCAGAACUACAGAAAUGUAGUUCAAGAGGAGGAGGUUUAUCGAAUUUUCGGCGGAUGCCUCCAAA [G32C C34A] | < 1e-05 s⁻¹ | < 1e-05 s⁻¹ | < 1e-05 s⁻¹ | – | < 1e-05 s⁻¹ |
| AUAAAAGCGCCAGAACUACAGAAAUGUAGUGGACGAGGAGGAUGUUUAUCGAAAUUUCGGCGGAUGCCUCCAAA [U31G G43U U54A] | < 1e-05 s⁻¹ | – | – | – | – |
| AUAAAAGCGCCAGAACUACAGAAAUGUAGUUAACGAGGAGGAGGUUUCUCGAAUUUUCGGCGGAUGCCUCCAAA [G32A A48C] | < 1e-05 s⁻¹ | < 1e-05 s⁻¹ | – | – | – |
| AUAAAAGCGCCAGAACUACAGAAAUGUAGUUAACGAGGCGGAGUUUUAUCGAAUUUUCGGCGGAUGCCUCCAAA [G32A A39C G44U] | < 1e-05 s⁻¹ | – | – | – | < 1e-05 s⁻¹ |
| AUAAAAGCGCCAGAACUACAGAAAUGUAGUUAACGAGGAGGAGGUUGAUCGAAUUUGCGGCGGAUGCCUCCAAA [G32A U47G U57G] | < 1e-05 s⁻¹ | – | – | – | – |
| AUAAAAGCGCCAGAACUACAGAAAUGUAGUGGACGAGGAGGAGAUUUAUCGAAUUUUCGGCGGAUGCCUCCAAA [U31G G44A] | < 1e-05 s⁻¹ | – | – | 5.95e-05 ± 2.1e-05 s⁻¹ | 9.7e-05 ± 2.6e-05 s⁻¹ |
| AUAAAAGCGCCAGAACUACAGAAAUGUAGUUAACGCGGAGGAGGCUUAUCGAAUUUUCGGCGGAUGCCUUCAAA [G32A A36C U45C C70U] | < 1e-05 s⁻¹ | – | – | – | < 1e-05 s⁻¹ |
| AUAAAAGCGCCAGAACUACAGAAAUGUAGUUAACGAGGAGGAUGUUUAUCGAAUUUUCGGCGGAUGUCUCCAAA [G32A G43U C67U] | < 1e-05 s⁻¹ | – | – | < 1e-05 s⁻¹ | – |
| AUAAAAGCGCCAGAACUACAGAAAUGUAGUUAACGAGGAGGAGCUUUAUCGAAUUUUCGGCGGAUGCCUCGAAA [G32A G44C C71G] | < 1e-05 s⁻¹ | – | – | – | < 1e-05 s⁻¹ |
| AUAAAAGCGCCAGAACUACAGAAAUGUAGUUAACGAGGAGGAGGUUUAUCGAAUUUUCGGCGGAUGGCUUCAAA [G32A C67G C70U] | < 1e-05 s⁻¹ | – | – | – | – |
| AUAAAAGCGCCAGAACUACAGAAAUGUAGUGGACGAGGAGGAGGGUUAUCGAAUUUUCGGAGGAUGCCUCCAAA [U31G U45G C61A] | < 1e-05 s⁻¹ | – | – | < 1e-05 s⁻¹ | < 1e-05 s⁻¹ |
| AUAAAAGCGCCAGAACUACAGAAAUGUAGUUAACGAGGAGGAGGUUUAUCGAAUGUUCGGCGGAUGCCUCCAAA [G32A U55G] | 4.93e-05 ± 1.7e-05 s⁻¹ | – | 0.000327 ± 5.7e-05 s⁻¹ | 0.000627 ± 0.00014 s⁻¹ | 0.00326 ± 0.00054 s⁻¹ |
| AUAAAAGCGCCAGAACUACAGAAAUGUAGUUAACGAGGAGGAGUUUUAUCGAAUUUUCGGCGGAUGCCUCCAAA [G32A G44U] | < 1e-05 s⁻¹ | – | < 1e-05 s⁻¹ | – | – |
| AUAAAAGCGCCAGAACUACAGAAAUGUAGUUAACGAGGAGGAGGUUUAUCGAAUUUUCCGCGGAUGCCUCCAAA [G32A G59C] | < 1e-05 s⁻¹ | < 1e-05 s⁻¹ | < 1e-05 s⁻¹ | < 1e-05 s⁻¹ | – |
| AUAAAAGCGCCAGAACUACAGAAAUGUAGUUAACGAGGAGGAGGUUUAUCGAUUUUUCGGCGGACGCCUCCAAA [G32A A53U U65C] | < 1e-05 s⁻¹ | < 1e-05 s⁻¹ | < 1e-05 s⁻¹ | – | – |
| AUAAAAGCGCCAGAACUACAGAAAUGUAGUUAACGAGGAGGAGGUUUAUAGAAUGUUCGGCGGAUGCCUCGAAA [G32A C50A U55G C71G] | < 1e-05 s⁻¹ | – | – | – | – |
| AUAAAAGCGCCAGAACUACAGAAAUGUAGUUAACGAGGAGGAGGUUUAUCGAAUUUUCGGCGUAUGCCUCCAAA [G32A G63U] | < 1e-05 s⁻¹ | < 1e-05 s⁻¹ | – | < 1e-05 s⁻¹ | < 1e-05 s⁻¹ |
| AUAAAAGCGCCAGAACUACAGAAAUGUAGUUACCGAGGAGGAGGUUUAUCGAAUUUUCGGCGGAUGCCUCCAAA [G32A A33C] | < 1e-05 s⁻¹ | < 1e-05 s⁻¹ | – | – | – |
| AUAAAAGCGCCAGAACUACAGAAAUGUAGUGGACGAGGAGGAGGUUUAUCGAAGUUUCGGCGGAUGGAUGCAAA [U31G U54G C67G C68A C70G] | 4.46e-05 ± 2.2e-05 s⁻¹ | – | – | 0.000243 ± 6.9e-05 s⁻¹ | – |
| AUAAAAGCGCCAGAACUACAGAAAUGUAGUUAACGAGGAGGAGGUUUAUCGAAGUUUCAGCGGAUGCCUCCAAA [G32A U54G G59A] | < 1e-05 s⁻¹ | – | – | – | – |
